Laboratory results reported in US20140120095A1 (Boehringer Ingelheim, published 2014).

Legend:
VEGF = VEGF (UniProt P15692-4 27-191, limits assumed); assay: cell-based or functional assay
[1] = biological target: DII4-His (C-terminal His-tagged human DII4, amino acid 27-524) (human, UniProt Q9NR61 25-522); assay: cell-based or functional assay
recombinant human DLL4 [2] = biological target: T1, recombinant human DLL4 (human, UniProt Q9NR61 25-522); assay: competition ELISA, biot-hDLL4 to coated hNotch1-Fc
T1 construct: also called rhDLL4; hDLL4
From the text: Residual binding of biotinylated human DII4 is detected using horseradish peroxidase (HRP) conjugated extravidin (Sigma, St. Louis, Mo., USA) (FIG. 3 A-C). Human DII4 is biotinylated as described above.

recombinant human DLL4 [3] = biological target: T1, recombinant human DLL4; assay: competition AlphaScreen, biot-hDLL4/hNotch1-Fc
Protocol: In brief, 1 nM biotinylated human DII4 is captured on streptavidin-coated donor beads (20 μg/mL), while 0.4 nM of the receptor human Notch1 (as a Fc fusion protein) is captured on anti-human Fc VHH-coated acceptor beads (20 μg/mL). Both loaded beads are incubated together with a dilution range of the competing VHH (FIG. 4 A-E).

[4] = biological target: T2, human DLL4 overexpressed on cells (human, UniProt Q9NR61 27-685); assay: FMAT, labelled hNotch1-Fc on CHO-hDLL4, periplasmic extract
T2 construct: full length human DLL4 on CHO or HEK293 cells; also called CHO-hDLL4; CHO-hDII4
From the text: (§1) All calculations are based on the FL1_total signal which comprises the average of the fluorescence per well times the number of counts per well.

human Jagged-1 = biological target: T3, human Jagged-1 (human, UniProt P78504 34-1067, limits assumed); assay: binding ELISA on coated recombinant human Jagged-1, OD 405 nm
T3 construct: also called hJagged-1; hJAG1
Protocol: Absence of binding to homologous ligands human DLL1 and human Jagged-1 is assessed via solid phase binding assay (ELISA). In brief, human DLL1 (Alexis, San Diego, Calif., USA) and human Jagged-1 (Alexis, San Diego, Calif., USA) are coated overnight at 4° C. at 1 μg/mL in a 96-well MaxiSorp plate (Nunc, Wiesbaden, Germany). Wells are blocked with a casein solution (1% in PBS). VHHs are applied as dilution series and binding is detected using a mouse anti-myc (Roche) and an anti-mouse-AP conjugate (Sigma, St. Louis, Mo., USA).

[5] = biological target: T4, cynomolgus DLL4 overexpressed on cells (cynomolgus, UniProt Q9NR61 27-685 (human entry)); assay: FACS titration on HEK293-cDLL4 cells, MCF
T4 construct: also called cyno DII4; cDLL4
T4 chain: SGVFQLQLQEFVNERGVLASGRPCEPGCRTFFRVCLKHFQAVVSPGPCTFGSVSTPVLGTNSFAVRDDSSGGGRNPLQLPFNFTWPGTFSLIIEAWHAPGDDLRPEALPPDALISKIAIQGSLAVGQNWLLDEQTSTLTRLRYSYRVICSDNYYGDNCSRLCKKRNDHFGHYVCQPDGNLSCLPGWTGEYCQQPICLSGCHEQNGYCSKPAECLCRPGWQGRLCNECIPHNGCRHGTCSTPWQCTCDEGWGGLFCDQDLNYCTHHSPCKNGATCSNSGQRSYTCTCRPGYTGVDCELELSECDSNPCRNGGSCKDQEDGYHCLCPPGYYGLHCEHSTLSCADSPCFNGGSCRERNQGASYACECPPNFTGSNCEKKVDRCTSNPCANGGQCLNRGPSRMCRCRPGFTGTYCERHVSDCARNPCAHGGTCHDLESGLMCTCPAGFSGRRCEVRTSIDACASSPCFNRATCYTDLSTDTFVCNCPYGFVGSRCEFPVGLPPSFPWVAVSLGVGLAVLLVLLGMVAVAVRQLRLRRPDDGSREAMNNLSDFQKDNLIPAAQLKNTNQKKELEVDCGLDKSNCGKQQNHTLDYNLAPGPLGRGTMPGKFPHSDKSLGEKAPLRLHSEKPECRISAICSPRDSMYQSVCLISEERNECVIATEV
Protocol: (§2) In order to determine the cynomologus cross-reactivity of the VHHs, a FACS binding experiment is performed. Cynomolgus DII4 expressing HEK293 cells (transient or stable transfection) are used for a titration binding experiment of the VHHs. After a 30 minutes incubation on ice, all samples are washed and detection is performed by applying anti-c-myc˜Alexa647 (Santa Cruz Biotechnology, Santa Cruz, Calif., USA). Human and mouse DII4 overexpressing HEK293 cells are taken as reference. The mean MCF value is determined on the FACS Array and used for calculation of the EC₅₀ value (see FIG. 9 A-E).

recombinant human DLL4 [6] = biological target: T1, recombinant human DLL4; assay: SPR Biacore T100, hDLL4 on chip, VHH/Fab injected
Protocol: Kinetic analysis to determine the affinity of the DII4-VHH interaction is performed by Surface Plasmon Resonance (SPR) on a Biacore T100 instrument. […] Purified VHHs or Fab fragment are injected for 2 minutes at different concentrations (between 10 and 300 nM) and allowed to dissociate for 20 min at a flow rate of 45 μl/min. Between sample injections, the surfaces are regenerated with 10 mM glycine pH1.5 and 100 mM HCl. HBS-N (Hepes buffer pH7.4) is used as running buffer. If possible, data are evaluated by fitting a 1:1 interaction model (Langmuir binding) onto the binding curves. The affinity constant KD is calculated from resulting association and dissociation rate constants (kₐ) and […].

[7] = biological target: T2, human DLL4 overexpressed on cells; assay: competitive FMAT, hNotch1-Fc on CHO-hDLL4
recombinant human DLL4 [8] = biological target: T1, recombinant human DLL4; assay: binding ELISA, coated rhDLL4
Protocol: (§3) In order to determine cross-reactivity to mouse DII4 a binding ELISA is performed. […] Wells are blocked with a casein solution (1% in PBS). VHHs are applied as dilution series and binding is detected using a mouse anti-myc (Roche) and an anti-mouse-AP conjugate (Sigma, St Louis, Mo., USA) (FIG. 7 A-H). As reference, binding to human DII4 is measured.

[9] = biological target: T5, mouse DLL4 overexpressed on cells (mouse, UniProt Q9JI71 27-686); assay: FACS titration on HEK293-mDLL4 cells, MCF
T5 construct: whole, on cells; also called CHO-mDLL4; CHO-mDII4
Protocol: as §2

[10] = biological target: T5, mouse DLL4 overexpressed on cells; assay: competitive FMAT, hNotch1-Fc on CHO-mDLL4
[11] = biological target: T5, mouse DLL4 overexpressed on cells; assay: FMAT, labelled hNotch1-Fc on CHO-mDLL4, periplasmic extract
From the text: as §1

[12] = biological target: T2, human DLL4 overexpressed on cells; assay: cell-based or functional assay
recombinant mouse DLL4 = biological target: T6, recombinant mouse DLL4 (mouse, UniProt Q9JI71 27-532); assay: binding ELISA, coated rmDLL4
T6 construct: extracellular domain; also called rmDLL4; mDLL4
Protocol: as §3

[13] = biological target: T7, recombinant human VEGF165 (human, UniProt P15692-4 27-191, biotinylated in the competition assays); assay: ELISA, hVEGF165/hVEGFR2-Fc competition; parameters: % inhibition: concentration or dose not given beside the values
T7 construct: Bought protein; also called hVEGF165; rhVEGF165

[14] = biological target: T7, recombinant human VEGF165; assay: SPR Biacore, immobilised hVEGF165, two state reaction model
Protocol: Samples are injected for 2 min and allowed to dissociate up to 20 min at a flow rate of 45 μl/min. In between sample injections, the chip surface is regenerated with 100 mM HCl. HBS-EP+(Hepes buffer pH7.4+EDTA) is used as running buffer. Binding curves are fitted using a Two State Reaction model by Biacore T100 Evaluation Software v2.0.1.
^{(a)}KD = kd1/kₐ₁ * (kd2/(kd2 + kₐ₂)) ^{(b)}Curves are fitted using a Two State Reaction model by Biacore T100 Evaluation Software v2.0.1

[15] = biological target: T7, recombinant human VEGF165; assay: AlphaScreen, hVEGF165/hVEGFR1-Fc competition; parameters: % inhibition: concentration or dose not given beside the values
Protocol: (§4) Finally, streptavidin donor beads (20 μg/ml) are added and after 1 hour of incubation in the dark, fluorescence is measured on the Envision microplate reader.

[16] = biological target: T7, recombinant human VEGF165; assay: AlphaScreen, hVEGF165/hVEGFR2-Fc competition; parameters: % inhibition: concentration or dose not given beside the values
Protocol: as §4

[17] = biological target: VEGF (used to stimulate HUVEC cells) (UniProt P15692-4 27-191, limits assumed); assay: cell-based or functional assay
[18] = biological target: T7, recombinant human VEGF165; assay: binding ELISA, coated rhVEGF165
[19] = biological target: T7, recombinant human VEGF165; assay: AlphaScreen, hVEGF165/hVEGFR2-Fc competition
Protocol: as §4

T5 sequence (Q9JI71 27-686): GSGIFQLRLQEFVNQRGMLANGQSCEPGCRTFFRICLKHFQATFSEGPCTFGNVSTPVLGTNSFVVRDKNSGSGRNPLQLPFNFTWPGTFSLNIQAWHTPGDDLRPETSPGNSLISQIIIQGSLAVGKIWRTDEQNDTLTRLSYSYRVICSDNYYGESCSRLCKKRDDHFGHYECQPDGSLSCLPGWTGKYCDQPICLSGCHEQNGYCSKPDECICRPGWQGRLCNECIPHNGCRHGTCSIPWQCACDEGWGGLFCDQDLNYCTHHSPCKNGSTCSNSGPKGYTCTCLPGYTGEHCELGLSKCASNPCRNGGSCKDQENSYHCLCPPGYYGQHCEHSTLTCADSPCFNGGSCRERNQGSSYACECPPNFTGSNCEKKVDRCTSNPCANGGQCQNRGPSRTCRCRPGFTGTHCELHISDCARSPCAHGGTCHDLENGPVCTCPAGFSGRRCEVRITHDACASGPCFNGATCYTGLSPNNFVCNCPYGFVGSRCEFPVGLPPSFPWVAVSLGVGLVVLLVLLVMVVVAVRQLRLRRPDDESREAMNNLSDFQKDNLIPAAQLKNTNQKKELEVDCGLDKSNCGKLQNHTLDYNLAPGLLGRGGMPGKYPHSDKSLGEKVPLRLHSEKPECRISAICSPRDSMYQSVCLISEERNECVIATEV
T7 sequence (P15692 other isoform, or with tags, fused parts or gaps): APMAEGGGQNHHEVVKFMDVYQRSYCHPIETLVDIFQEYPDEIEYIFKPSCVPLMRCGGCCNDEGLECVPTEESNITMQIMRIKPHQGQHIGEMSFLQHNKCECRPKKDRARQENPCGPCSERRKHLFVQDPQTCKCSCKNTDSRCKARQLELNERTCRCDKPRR
VEGF (used to stimulate HUVEC cells), sequence (P15692 other isoform, or with tags, fused parts or gaps limits assumed): as the sequence (P15692 other isoform, or with tags, fused parts or gaps) above
VEGF, sequence (P15692 other isoform, or with tags, fused parts or gaps limits assumed): as the sequence (P15692 other isoform, or with tags, fused parts or gaps) above
T6 sequence (Q9JI71 27-532): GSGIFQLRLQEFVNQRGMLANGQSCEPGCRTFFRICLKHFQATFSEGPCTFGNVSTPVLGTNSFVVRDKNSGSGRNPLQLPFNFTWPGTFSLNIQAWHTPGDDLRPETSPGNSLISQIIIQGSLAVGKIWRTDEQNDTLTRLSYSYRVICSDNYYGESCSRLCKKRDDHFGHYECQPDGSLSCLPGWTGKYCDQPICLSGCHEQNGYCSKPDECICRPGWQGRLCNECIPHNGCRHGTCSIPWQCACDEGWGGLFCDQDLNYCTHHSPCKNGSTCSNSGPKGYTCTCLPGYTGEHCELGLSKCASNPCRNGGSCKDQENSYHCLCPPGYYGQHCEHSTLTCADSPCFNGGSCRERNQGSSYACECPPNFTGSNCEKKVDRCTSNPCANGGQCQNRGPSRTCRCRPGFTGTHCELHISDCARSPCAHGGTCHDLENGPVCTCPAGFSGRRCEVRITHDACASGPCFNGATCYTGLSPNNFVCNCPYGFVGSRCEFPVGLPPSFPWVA

Row | IC50 (recombinant human DLL4 [2]) [nM] | % inh [4] [%] | binding result (human Jagged-1) | binding result [5] | Kd (recombinant human DLL4 [6]) [nM] | koff (recombinant human DLL4 [6]) [s⁻¹] | kon (recombinant human DLL4 [6]) [M⁻¹ s⁻¹] | IC50 [7] [nM] | EC50 (recombinant human DLL4 [8]) [nM] | EC50 (read off the curve) [9] [nM] | IC50 [10] [nM] | % inh [11] [%] | IC50, DLL4/Notch1 reporter assay [12] [nM] | EC50 (recombinant mouse DLL4) [nM] | also measured | Binder
1 | – | – | – | – | – | – | – | – | – | – | – | – | – | – | % inhibition, VEGF HUVEC Erk phosphorylation assay, -HSA (VEGF): 95%; IC50 (nM), VEGF HUVEC Erk phosphorylation assay, -HSA (VEGF): 0.89 nM; IC50 (nM), DII4-mediated HUVEC proliferation assay, -HSA [1]: 2.06 nM | VEGFDLLBII013 (bispecific antibody, PEGylated 35gs, cys15 linker (PEG on the Cys at position 15 of the 35 Gly-Ser linker; size of the PEG not stated)) EVQLVESGGGLVQTGDSLRLSCEVSGRTFSSYSMGWFRQAQGKEREFVVAISKGGYKYDSVSLEGRFTISKDNAKNTVYLQINSLKPEDTAVYYCASSRAYGSSRLRLADTYEYWGQGTQVTVSSGGGGSGGGGSGGGGCGGGGSGGGGSGGGGSGGGGSEVQLVESGGGLVQAGGSLRLSCAASGRTFSSYAMAWYRQAPGKEREYVAAIRWSGGTAYYADSVQGRFTISRDNAKNTVYLQMNSLKPEDTAVYYCANRAPDTRLAPYEYDHWGQGTQVTVSS
2 | 72 | 74 | no binding (tested: 5e-7 M) | no binding (tested: 1000 nM) | 120 | 0.13 | 1.2e+06 | 172 | 137 | ~20 | 106 | 71 | 4660 | 13.1 | IC50 (recombinant human DLL4 [3]): 24.1 nM | DLLBII62C11 (VHH) VHH: EVQLMESGGGLVQPGGSLRLSCVAAGFTFSNYYMSWVRQAPGKGLEWVSVISPDGSNTYYADTVKGRFTISRGNAKNTLFLQMTGLKSEDAAVYYCARGSGSWGVHGQGTQVTVSS
3 | 38.4 | 75 | no binding (tested: 5e-7 M) | no binding (tested: 1000 nM) | 310 | 0.048 | 160000 | 161 | 86.5 | ~20 | 28.8 | 83 | 5160 | 8.7 | – | DLLBII96C03 (VHH, also called 96C3) VHH: EVQLVESGGGLVQPGGSLRLSCAASGFTFGNYDMSWVRQAPGKGPEWVSAINSGGGDTYYADSVKGRFTISRDNAKNTLYLQMNSLKPEDTAVYYCATPRGWGPTGPHEYGYWGQGTQVTVSS
4 | – | – | – | – | – | – | – | – | – | – | – | – | – | – | % inhibition [13]: 100%; IC50 [13]: 0.213 nM; Kd [14]: 0.69 nM; ka1 [14]: 300000 M⁻¹ s⁻¹; ka2 [14]: 0.024 s⁻¹; kd1 [14]: 0.018 s⁻¹; kd2 [14]: 0.00027 s⁻¹; % inhibition [15]: 87%; IC50 [15]: 0.048 nM; % inhibition [16]: 100%; IC50 [16]: 0.046 nM; % inhibition, VEGF HUVEC Erk phosphorylation assay [17]: 100%; IC50, VEGF HUVEC Erk phosphorylation assay [17]: 0.25 nM; EC50 [18]: 0.221 nM; IC50 [19]: 0.038 nM | VEGFBII023 (VHH, not shown: small tags and cut ends, Bivalent anti-VEGF VHH; also called VEGFBII23B04-40GS-10E07) EVQLVESGGGLVQTGDSLRLSCEVSGRTFSSYSMGWFRQAQGKEREFVVAISKGGYKYDSVSLEGRFTISKDNAKNTVYLQINSLKPEDTAVYYCASSRAYGSSRLRLADTYEYWGQGTQVTVSSGGGGSGGGGSGGGGSGGGGSGGGGSGGGGSGGGGSGGGGSEVQLVESGGGLVQAGGSLRLSCAASGRTFSNYAMGWFRQAPGKERVLVADISSSGINTYVADAVKGRFTISRDNAKNTVYLQMNSLKPEDTAVYYCAASAWWYSQMARDNYRYWGQGTQVTVSS
